Read-outs that look alike come from different tables or passages of the source.
Tests used:
[1] = target: T1, Hs_CD123_6His-Avi (CD123 ECD-His-Avi fusion protein) (human, UniProt P26951 19-303); assay: SPR (Biacore T-100), univalent affinity; antibody captured on the CM4 chip, human CD123 ECD as analyte
T1 construct: The signal peptide is marked only by bold type, so its limits cannot be read here and were not guessed; also called His-Avi tagged peptide encompassing the ECD of human CD123
T1 sequence: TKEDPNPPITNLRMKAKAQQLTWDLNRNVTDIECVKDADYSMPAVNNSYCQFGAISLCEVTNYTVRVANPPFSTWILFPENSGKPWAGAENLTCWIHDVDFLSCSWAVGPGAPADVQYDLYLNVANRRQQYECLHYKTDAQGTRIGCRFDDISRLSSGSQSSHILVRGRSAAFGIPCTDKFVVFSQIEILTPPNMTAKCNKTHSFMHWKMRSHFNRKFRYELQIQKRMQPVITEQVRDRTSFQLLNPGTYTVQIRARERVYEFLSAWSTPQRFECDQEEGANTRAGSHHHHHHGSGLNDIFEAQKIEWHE
Experimental: FIGS. 13A-13B. Surface plasmon resonance (Biacore T-100) analyses were performed to rigorously/precisely determine univalent binding affinities of recombinant chimeric and humanized versions of the anti-human CD123 monoclonal antibody 10C4, using (FIG. 13A) human IgG1 and (FIG. 13B) human IgG4 frameworks. For these experiments, a peptide encoding the complete extracellular portion of human CD123 was used, and the antibodies were captured on the biosensor chip (CM4) via a Fc gamma-specific goat anti-human IgG and amine coupling.

[2] = target: T1, Hs_CD123_6His-Avi (CD123 ECD-His-Avi …); assay: competition ELISA: plate coated with CD123 ECD-His-Avi, biotinylated 10C4 as competitor, increasing unlabeled antibody, HRP-streptavidin; unit not given, x axis is log(concentration)
Text: (§1) FIGS. 15A-15B. Enzyme-linked immunosorbent assay (ELISA) with the original mouse 10C4 antibody and peptide encompassing the entire extracellular domain (ECD) of CD123 was used to test competitive binding of 10C4 compared to recombinant (FIG. 15A) human IgG1 versions and (FIG. 15B) human IgG4 versions of chimeric 10C4 and humanized 10C4 monoclonal antibodies. Plates were coated with CD123 ECD-His-Avi fusion protein and bound to biotinylated 10C4 antibody in the presence or absence of increasing amounts of competing unlabeled antibodies, as detected by HRP-Streptavidin.

[3] = target: T1, Hs_CD123_6His-Avi (CD123 ECD-His-Avi …); assay: as above; remark: listed apart in the source
Text: as §1

[4] = target: T2, human interleukin-3 (IL-3) receptor alpha-chain (CD123), on cells (human, UniProt P26951 19-378); assay: flow cytometry (PE-A), recombinant human IgG1 mAb + labeled secondary antibody, parental MOLM-13 cells against MOLM-13 CD123KO
T2 construct: whole, on cells; also called human CD123

[5] = target: T2, human interleukin-3 (IL-3) receptor …; assay: flow cytometry (PE-A), recombinant human IgG4 mAb + labeled secondary antibody, parental MOLM-13 cells against MOLM-13 CD123KO
Text: FIGS. 20A-20B. MOLM-13 cells with CRISPR/Cas9-mediated knockout of the CD123 locus (MOLM-13^CD123KO), parental MOLM-13 cells (endogenously expressing CD123) (FIG. 20A), ML-1 cells with CRISPR/Cas9-mediated knockout of the CD123 locus (ML-1^CD123KO), and ML-1^CD123KO cells in which human CD123 was re-expressed via lentivirus-mediated gene expression (FIG. 20B) were left untreated or treated with recombinant human anti-human CD123 mAbs (clones 1B5, 1D9, 1E3, 1F2, and 1G5; all human IgG4 frameworks) and a labeled secondary antibody before flow cytometric analysis.

[6] = target: T1, Hs_CD123_6His-Avi (CD123 ECD-His-Avi …); assay: competition ELISA against biotinylated 10C4 on coated CD123 ECD-His-Avi; percent relative to the 10C4 row of the drawn table
Text: as §1

[7] = target: T2, human interleukin-3 (IL-3) receptor …; assay: flow cytometry (APC-A), 30 min at 4 °C; bound fusion protein detected with APC-anti-hFc (tubes 1-5) or through Y-DOTA-biotin and APC-SA (tubes 6-8); RS4;11 cells expressing human CD123
Experimental: FIG. 24. Flow cytometry-based binding assay of monomeric anti-CD123 BsAb derived from 10C4 binding sequences. 0.4×10⁶ CD123-negative parental RS4;11 cells (RSA) or RSA cells engineered to express human CD123 (RS4-CD123) were incubated with or without CD123 bispecific fusion protein from purification (FP) or crude supernatant (load), with or without Y-DOTA-biotin. After incubating for 30 min at 4° C. cells were washed twice and assayed by flow cytometry with fluorophore-labeled anti-human Fc receptor secondary Ab (tubes 1-5) to detect bound bispecific fusion protein, or fluorophore labeled […] secondary Ab (tubes 6-8) to detect functional capacity of bispecific fusion protein to bind both CD123+ target cells and the radioligand, Y-DOTA-biotin.

[8] = target: T2, human interleukin-3 (IL-3) receptor …; assay: flow cytometry (APC-A), mAb at 2 µg/mL + labeled secondary antibody; RS4;11 transduced with human CD123, TF-1, KG-1, MOLM-13 cells
Experimental: FIG. 1. Parental human RS4;11 cells (endogenously lacking CD123), RS4;11 cells transduced with human CD123, CD123-expressing human AML cells lines (TF-1, KG-1, MOLM-13), and MOLM-13 cells with CRISPR/Cas9-mediated knockout of the CD123 locus (CD123^KO) were left untreated or treated with murine anti-human CD123 mAbs (10C4, 5G6, 11F11, 1H8; used at 2 µg/mL) or a commercial anti-CD123 mAbs (7G3, used at 2 µg/mL) and a labeled secondary antibody before flow cytometric analysis.

B1: 123-10C4 (murine anti-CD123 antibody, IgG2b isotype, Kappa Light Chain) (antibody, V domains shown)
VH: QVQLKESGPGLVAPSQNLSITCTVSGFSLTTYDINWIRQPPGKGLEWLGVIWTGGGTNYNSAFMSRLSISKDNSKSQVFLKMNSLQTDDTAMYYCVRGDTYHYALDFWGQGTSVTVSS
VL: DIVMSQSPSSLAVSAGEKVTMSCKSSQSLLSSGTRKNYLAWYQQKPGQSPKLLIYWASTRESGVPDRFTGSGSGTDFTLTISSVQAEDLAVYYCKQSYILFTFGSGTKLEIK
notes: also called parent murine 10C4; murine anti-human CD123 monoclonal antibody 10C4
B1 was tested, and the Kd [1] was 0.401 nM, the koff [1] was 0.000102 s⁻¹ and the kon [1] was 254000 M⁻¹ s⁻¹. The “Calculated concentration at 1/2 OD” value [2] was 1.04 and the “Calculated concentration at 1/2 OD” value [3] was 1.12.

B2: 123-ATX1F2, fully human recombinant antibody, human IgG1 framework (antibody)
heavy: not shown
light: DIQMTQSPSSLSASVGDRVTITCRASQGIRNDLGWYQQRPGKAPKRLIYAASSLQSGVPSRFSGSGSGTEFTLAISSLQPEDFATYSCLQHNSYPWTFGQGTKVEIKRTVAAPSVFIFPPSDEQLKSGTASVVCLLNNFYPREAKVQWKVDNALQSGNSQESVTEQDSKDSTYSLSSTLTLSKADYEKHKVYACEVTHQGLSSPVTKSFNRGEC
notes: also called 1F2 (human IgG1)
B2: binds [4].

B3: 123-ATX1F2, fully human recombinant antibody, human IgG4 framework (antibody)
heavy: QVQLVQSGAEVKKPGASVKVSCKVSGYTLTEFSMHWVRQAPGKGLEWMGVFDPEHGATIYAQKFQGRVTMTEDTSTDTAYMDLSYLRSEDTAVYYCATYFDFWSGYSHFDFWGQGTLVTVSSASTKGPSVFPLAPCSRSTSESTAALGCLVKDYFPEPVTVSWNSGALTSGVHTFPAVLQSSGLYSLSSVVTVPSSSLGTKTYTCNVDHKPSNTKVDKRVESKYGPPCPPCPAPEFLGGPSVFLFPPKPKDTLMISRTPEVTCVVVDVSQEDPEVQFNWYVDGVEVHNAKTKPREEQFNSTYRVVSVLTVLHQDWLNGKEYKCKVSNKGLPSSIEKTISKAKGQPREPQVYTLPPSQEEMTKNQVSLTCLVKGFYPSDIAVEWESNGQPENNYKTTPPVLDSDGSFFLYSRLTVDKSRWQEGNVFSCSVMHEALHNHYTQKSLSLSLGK
light: B2 light
notes: also called 1F2 (human IgG4)
B3: binds [5].

B4: Chi-10C4, recombinant chimeric 10C4, human IgG4 framework (antibody)
heavy: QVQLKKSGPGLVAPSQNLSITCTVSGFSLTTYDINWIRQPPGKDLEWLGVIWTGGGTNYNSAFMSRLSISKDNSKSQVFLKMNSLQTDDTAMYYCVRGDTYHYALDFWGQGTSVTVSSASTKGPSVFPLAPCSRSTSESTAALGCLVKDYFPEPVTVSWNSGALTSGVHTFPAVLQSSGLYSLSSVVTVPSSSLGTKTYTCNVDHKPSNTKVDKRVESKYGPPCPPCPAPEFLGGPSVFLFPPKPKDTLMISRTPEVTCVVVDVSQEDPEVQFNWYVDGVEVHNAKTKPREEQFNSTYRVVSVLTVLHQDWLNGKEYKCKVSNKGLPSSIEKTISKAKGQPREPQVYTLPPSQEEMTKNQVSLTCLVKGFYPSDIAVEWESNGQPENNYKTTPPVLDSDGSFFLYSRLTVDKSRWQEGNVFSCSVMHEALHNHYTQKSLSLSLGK
light: DIVMSQSPSSLAVSAGEKVTMSCKSSQSLLSSGTRKNYLAWYQQKPGQSPKLLIYWASTRESGVPDRFTGSGSGTDFTLTISSVQAEDLAVYYCKQSYILFTFGSGTKLEIKRTVAAPSVFIFPPSDEQLKSGTASVVCLLNNFYPREAKVQWKVDNALQSGNSQESVTEQDSKDSTYSLSSTLTLSKADYEKHKVYACEVTHQGLSSPVTKSFNRGEC
notes: Signal peptide left out as for the IgG1 form
B4 showed a Kd [1] of 1.39 nM, a koff [1] of 0.00011 s⁻¹ and a kon [1] of 79100 M⁻¹ s⁻¹. The Immunoreactivity [6] was 116% and the “Calculated concentration at 1/2 OD” value [2] was 1.21.

B5: 10C4-Fc-C825 monomeric construct (monomeric anti-CD123 x anti-Y-DOTA bispecific antibody) (bispecific antibody, human IgG1)
chain: DIVMSQSPSSLAVSAGEKVTMSCKSSQSLLSSGTRKNYLAWYQQKPGQSPKLLIYWASTRESGVPDRFTGSGSGTDFTLTISSVQAEDLAVYYCKQSYILFTFGSGTKLEIKGGGSGGGGSGGGGSGGGGSSQVQLKESGPGLVAPSQNLSITCTVSGFSLTTYDINWIRQPPGKGLEWLGVIWTGGGTNYNSAFMSRLSISKDNSKSQVFLKMNSLQTDDTAMYYCVRGDTYHYALDFWGQGTSVTVSSLEPKSSDKTHTSPPSPAPELLGGPSVFLFPPKPKDTLMISRTPEVTCVVVDVSHEDPEVKFNWYVDGVEVHNAKTKPREEQYNSTYRVVSVLTVLHQDWLNGKEYKCKVSNKALPAPIEKTISKAKGQPREPQVYTLPPSRDELTKNQVSLTCRVKGFYPSDIAVEWESNGQPENNYKTTPPVLDSDGSFHLESKLTVDKSRWQQGNVFSCSVMHEGLHNHYTQKSLSLSPGKVDGASSHVNVSSPSVQDIHVKLQESGPGLVQPSQSLSLTCTVSGFSLTDYGVHWVRQSPGKGLEWLGVIWSGGGTAYNTALISRLNIYRDNSKNQVFLEMNSLQAEDTAMYYCARRGSYPYNYFDAWGCGTTVTVSSGGGGSGGGGSGGGGSQAVVIQESALTTPPGETVTLTCGSSTGAVTASNYANWVQEKPDHCFTGLIGGHNNRPPGVPARFSGSLIGDKAALTIAGTQTEDEAIYFCALWYSDHWVIGGGTRLTVLG
notes: Single chain: 10C4 VL, linker 1, 10C4 VH, hinge and human IgG1 Fc (monomerising substitutions), linker 2, C825 VH, linker 3, C825 VL; also called monomeric 10C4 BsAb; monomeric anti-CD123 BsAb
B5: binds [7].

B6: Chi-10C4, recombinant chimeric 10C4, human IgG1 framework (antibody)
heavy: not shown
light: B4 light
Work on B6 yielded a Kd [1] of 0.572 nM, a koff [1] of 5.24e-05 s⁻¹ and a kon [1] of 91600 M⁻¹ s⁻¹. The Immunoreactivity [6] was 100% and the “Calculated concentration at 1/2 OD” value [3] was 1.12.

B7: 123-11F11 (murine anti-CD123 antibody, IgG1 isotype, Kappa Light Chain) (antibody, V domains shown)
VH: EVTLVESGGGLEQPGGSLSLSCAASGFTFTDYYMSWVRQPPGKALEWLALIRNKANGYTTEYSASVKGRFTISRDNSQSILYLQMNALRAEDSATYYCARQVRNYYGYEEDALDYWGQGTSVTVSS
VL: DIVLTQSPASLAVSLGQRATISCRASESLDFYGNSFMHWYQQKSGQPPKLLISRASNLESGIPPRFSGSGSRTDFTLTIDPVEADDVATYYCQQSYEDPYTFGGGTKLEIK
notes: murine IgG1, kappa
B7: binds [8].

— US20230295316A1 (FRED HUTCHINSON CANCER CENTER, published 2023)
